Assay results published in the supplement of paper PMC5998384.

Assays:
[1] = test system: HeLa Kyoto; assay: thermal stability score vs G1/S (z-score of summed log2 fold changes over temperatures); higher = more thermally stable than in G1/S
[2] = test system: HeLa Kyoto; assay: solubility in G1/S (NP-40 vs SDS abundance) (log2 ratio); higher = more soluble; settings: cell cycle stage: G1/S
[3] = test system: HeLa Kyoto; assay: solubility change mitosis vs G1/S (difference of NP-40 vs SDS log2 ratios) (log2 ratio difference); higher = more soluble in mitosis
[4] = test system: HeLa Kyoto; assay: melting temperature (median over replicates), in situ; higher = more thermally stable
[5] = cell cycle stage: early G1 (4.5 h after nocodazole release)
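Wherever melting temperature (median over replicates), in situ is given: HeLa Kyoto cells synchronized by double thymidine or nocodazole block, proteins quantified by TMT10plex mass spectrometry, three independent biological replicates.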
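Wherever solubility change mitosis vs G1/S (difference of NP-40 vs SDS log2 ratios) is given: synchronized HeLa Kyoto cells (double thymidine block for G1/S, nocodazole release for mitosis), protein amounts in NP-40 versus SDS lysates quantified by mass spectrometry, three biological replicates.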
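Wherever solubility in G1/S (NP-40 vs SDS abundance) is given: HeLa Kyoto cells arrested at G1/S by double thymidine block, proteins quantified by TMT10plex mass spectrometry in mild NP-40 versus SDS extracts, three biological replicates.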
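Wherever thermal stability score vs G1/S (z-score of summed log2 fold changes over temperatures) is given: synchronized HeLa Kyoto cells, proteins quantified by TMT10plex mass spectrometry, three biological replicates, mitosis taken 0.5 h after nocodazole release, G1/S directly after double thymidine block.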

Sequence	thermal stability score [1, 5]	thermal stability score ([1]; cell cycle stage: mitosis)	solubility in G1/S (log2) [2]	solubility change mitosis (log2) [3]	melting temperature ([4]; cell cycle stage: G1/S)	melting temperature ([4]; cell cycle stage: mitosis)
MRSIRSFANDDRHVMVKHSTIYPSPEELEAVQNMVSTVECALKHVSDWLDETNKGTKTEGETEVKKDEAGENYSKDQGGRTLCGVMRIGLVAKGLLIKDDMDLELVLMCKDKPTETLLNTVKDNLPIQIQKLTEEKYQVEQCVNEASIIIRNTKEPTLTLKVILTSPLIRDELEKKDGENVSMKDPPDLLDRQKCLNALASLRHAKWFQARANGLKSCVIVLRILRDLCNRVPTWAPLKGWPLELICEKSIGTCNRPLGAGEALRRVMECLASGILLPGGPGLHDPCERDPTDALSYMTIQQKEDITHSAQHALRLSAFGQIYKVLEMDPLPSSKPFQKYSWSVTDKEGAGSSALKRPFEDGLGDDKDPNKKMKRNLRKILDSKAIDLMNALMRLNQIRPGLQYKLLSQSGPVHAPVFTMSVDVDGTTYEASGPSKKTAKLHVAVKVLQAMGYPTGFDADIECMSSDEKSDNESKNETVSSNSSNNTGNSTTETSSTLEVRTQGPILTASGKNPVMELNEKRRGLKYELISETGGSHDKRFVMEVEVDGQKFRGAGPNKKVAKASAALAALEKLFSGPNAANNKKKKIIPQAKGVVNTAVSAAVQAVRGRGRGTLTRGAFVGATAAPGYIAPGYGTPYGYSTAAPAYGLPKRMVLLPVMKFPTYPVPHYSFF [STRBP]	-0.506	-0.00226	-0.314	-0.0522	50.5 °C	52.5 °C
MRSRVAVRACHKVCRCLLSGFGGRVDAGQPELLTERSSPKGGHVKSHAELEGNGEHPEAPGSGEGSEALLEICQRRHFLSGSKQQLSRDSLLSGCHPGFGPLGVELRKNLAAEWWTSVVVFREQVFPVDALHHKPGPLLPGDSAFRLVSAETLREILQDKELSKEQLVAFLENVLKTSGKLRENLLHGALEHYVNCLDLVNKRLPYGLAQIGVCFHPVFDTKQIRNGVKSIGEKTEASLVWFTPPRTSNQWLDFWLRHRLQWWRKFAMSPSNFSSSDCQDEEGRKGNKLYYNFPWGKELIETLWNLGDHELLHMYPGNVSKLHGRDGRKNVVPCVLSVNGDLDRGMLAYLYDSFQLTENSFTRKKNLHRKVLKLHPCLAPIKVALDVGRGPTLELRQVCQGLFNELLENGISVWPGYLETMQSSLEQLYSKYDEMSILFTVLVTETTLENGLIHLRSRDTTMKEMMHISKLKDFLIKYISSAKNV [POLG2]	0.753	1.26	-0.0655	0.206	–	54.6 °C
MRTDSGARLEEGHLRPPRALPPVPSQDDIPLSRPKKKKPRTKNTPASASLEGLAQTAGRRPSEGNEPSTKELKEHPEAPVQRRQKKTRLPLELETSSTQKKSSSSSLLRNENGIDAEPAEEAVIQKPRRKTKKTQPAELQYANELGVEDEDIITDEQTTVEQQSVFTAPTGISQPVGKVFVEKSRRFQAADRSELIKTTENIDVSMDVKPSWTTRDVALTVHRAFRMIGLFSHGFLAGCAVWNIVVIYVLAGDQLSNLSNLLQQYKTLAYPFQSLLYLLLALSTISAFDRIDFAKISVAIRNFLALDPTALASFLYFTALILSLSQQMTSDRIHLYTPSSVNGSLWEAGIEEQILQPWIVVNLVVALLVGLSWLFLSYRPGMDLSEELMFSSEVEEYPDKEKEIKASS [TMEM237]	-4.81	-5.57	-0.0506	-0.0698	54.9 °C	55.4 °C
MSAEVKVTGQNQEQFLLLAKSAKGAALATLIHQVLEAPGVYVFGELLDMPNVRELAESDFASTFRLLTVFAYGTYADYLAEARNLPPLTEAQKNKLRHLSVVTLAAKVKCIPYAVLLEALALRNVRQLEDLVIEAVYADVLRGSLDQRNQRLEVDYSIGRDIQRQDLSAIARTLQEWCVGCEVVLSGIEEQVSRANQHKEQQLGLKQQIESEVANLKKTIKVTTAAAAAATSQDPEQHLTELREPAPGTNQRQPSKKASKGKGLRGSAKIWSKSN [COPS7A]	-1.47	-1.53	0.458	0.216	53.9 °C	54 °C
MSAFDTNPFADPVDVNPFQDPSVTQLTNAPQGGLAEFNPFSETNAATTVPVTQLPGSSQPAVLQPSVEPTQPTPQAVVSAAQAGLLRQQEELDRKAAELERKERELQNTVANLHVRQNNWPPLPSWCPVKPCFYQDFSTEIPADYQRICKMLYYLWMLHSVTLFLNLLACLAWFSGNSSKGVDFGLSILWFLIFTPCAFLCWYRPIYKAFRSDNSFSFFVFFFVFFCQIGIYIIQLVGIPGLGDSGWIAALSTLDNHSLAISVIMMVVAGFFTLCAVLSVFLLQRVHSLYRRTGASFQQAQEEFSQGIFSSRTFHRAASSAAQGAFQGN [SCAMP2]	-1.72	-3.07	0.177	-0.103	58.4 °C	56.6 °C
